Data taken from publication PMC8298264, “Function of cofactor Akirin2 in the regulation of gene expression in model human neutrophil-like HL60 cells” (Bioscience Reports, 2021).

B1: sp¦Q53GQ0¦DHB12_HUMAN (protein, UniProt Q53GQ0 1-312, looked up)
Very-long-chain 3-oxoacyl-CoA …: MESALPAAGFLYWVGAGTVAYLALRISYSLFTALRVWGVGNEAGVGPGLGEWAVVTGSTDGIGKSYAEELAKHGMKVVLISRSKDKLDQVSSEIKEKFKVETRTIAVDFASEDIYDKIKTGLAGLEIGILVNNVGMSYEYPEYFLDVPDLDNVIKKMININILSVCKMTQLVLPGMVERSKGAILNISSGSGMLPVPLLTIYSATKTFVDFFSQCLHEEYRSKGVFVQSVLPYFVATKLAKIRKPTLDKPSPETFVKSAIKTVGLQSRTNGYLIHALMGSIISNLPSWIYLKIVMNMNKSTRAHYLKKTKKN
B2: sp¦Q15645¦PCH2_HUMAN (protein, UniProt Q15645 1-432, looked up)
Pachytene checkpoint protein …: MDEAVGDLKQALPCVAESPTVHVEVHQRGSSTAKKEDINLSVRKLLNRHNIVFGDYTWTEFDEPFLTRNVQSVSIIDTELKVKDSQPIDLSACTVALHIFQLNEDGPSSENLEEETENIIAANHWVLPAAEFHGLWDSLVYDVEVKSHLLDYVMTTLLFSDKNVNSNLITWNRVVLLHGPPGTGKTSLCKALAQKLTIRLSSRYRYGQLIEINSHSLFSKWFSESGKLVTKMFQKIQDLIDDKDALVFVLIDEVESLTAARNACRAGTEPSDAIRVVNAVLTQIDQIKRHSNVVILTTSNITEKIDVAFVDRADIKQYIGPPSAAAIFKIYLSCLEELMKCQIIYPRQQLLTLRELEMIGFIENNVSKLSLLLNDISRKSEGLSGRVLRKLPFLAHALYVQAPTVTIEGFLQALSLAVDKQFEERKKLAAYI
B3: sp¦P27105¦STOM_HUMAN (protein, UniProt P27105 1-288, looked up)
Stomatin: MAEKRHTRDSEAQRLPDSFKDSPSKGLGPCGWILVAFSFLFTVITFPISIWMCIKIIKEYERAIIFRLGRILQGGAKGPGLFFILPCTDSFIKVDMRTISFDIPPQEILTKDSVTISVDGVVYYRVQNATLAVANITNADSATRLLAQTTLRNVLGTKNLSQILSDREEIAHNMQSTLDDATDAWGIKVERVEIKDVKLPVQLQRAMAAEAEASREARAKVIAAEGEMNASRALKEASMVITESPAALQLRYLQTLTTIAAEKNSTIVFPLPIDMLQGIIGAKHSHLG
B4: sp¦P10515¦ODP2_HUMAN (protein, UniProt P10515 87-647, looked up)
Dihydrolipoyllysine-residue …: SLPPHQKVPLPSLSPTMQAGTIARWEKKEGDKINEGDLIAEVETDKATVGFESLEECYMAKILVAEGTRDVPIGAIICITVGKPEDIEAFKNYTLDSSAAPTPQAAPAPTPAATASPPTPSAQAPGSSYPPHMQVLLPALSPTMTMGTVQRWEKKVGEKLSEGDLLAEIETDKATIGFEVQEEGYLAKILVPEGTRDVPLGTPLCIIVEKEADISAFADYRPTEVTDLKPQVPPPTPPPVAAVPPTPQPLAPTPSAPCPATPAGPKGRVFVSPLAKKLAVEKGIDLTQVKGTGPDGRITKKDIDSFVPSKVAPAPAAVVPPTGPGMAPVPTGVFTDIPISNIRRVIAQRLMQSKQTIPHYYLSIDVNMGEVLLVRKELNKILEGRSKISVNDFIIKASALACLKVPEANSSWMDTVIRQNHVVDVSVAVSTPAGLITPIVFNAHIKGVETIANDVVSLATKAREGKLQPHEFQGGTFTISNLGMFGIKNFSAIINPPQACILAIGASEDKLVPADNEKGFDVASMMSVTLSCDHRVVDGAVGAQWLAEFRKYLEKPITMLL
B5: sp¦P51159¦RB27A_HUMAN (protein, UniProt P51159 2-221, looked up)
Ras-related protein Rab-27A: SDGDYDYLIKFLALGDSGVGKTSVLYQYTDGKFNSKFITTVGIDFREKRVVYRASGPDGATGRGQRIHLQLWDTAGQERFRSLTTAFFRDAMGFLLLFDLTNEQSFLNVRNWISQLQMHAYCENPDIVLCGNKSDLEDQRVVKEEEAIALAEKYGIPYFETSAANGTNISQAIEMLLDLIMKRMERCVDKSWIPEGVVRSNGHASTDQLSEEKEKGACGC
B6: sp¦Q9H9B4¦SFXN1_HUMAN (protein, UniProt Q9H9B4 2-322, looked up)
Sideroflexin-1: SGELPPNINIKEPRWDQSTFIGRANHFFTVTDPRNILLTNEQLESARKIVHDYRQGIVPPGLTENELWRAKYIYDSAFHPDTGEKMILIGRMSAQVPMNMTITGCMMTFYRTTPAVLFWQWINQSFNAVVNYTNRSGDAPLTVNELGTAYVSATTGAVATALGLNALTKHVSPLIGRFVPFAAVAAANCINIPLMRQRELKVGIPVTDENGNRLGESANAAKQAITQVVVSRILMAAPGMAIPPFIMNTLEKKAFLKRFPWMSAPIQVGLVGFCLVFATPLCCALFPQKSSMSVTSLEAELQAKIQESHPELRRVYFNKGL
B7: sp¦P51148¦RAB5C_HUMAN (protein, UniProt P51148 1-216, looked up)
Ras-related protein Rab-5C: MAGRGGAARPNGPAAGNKICQFKLVLLGESAVGKSSLVLRFVKGQFHEYQESTIGAAFLTQTVCLDDTTVKFEIWDTAGQERYHSLAPMYYRGAQAAIVVYDITNTDTFARAKNWVKELQRQASPNIVIALAGNKADLASKRAVEFQEAQAYADDNSLLFMETSAKTAMNVNEIFMAIAKKLPKNEPQNATGAPGRNRGVDLQENNPASRSQCCSN
B8: sp¦Q9H939¦PPIP2_HUMAN (protein, UniProt Q9H939 1-334, looked up)
Proline-serine-threonine …: MTRSLFKGNFWSADILSTIGYDNIIQHLNNGRKNCKEFEDFLKERAAIEERYGKDLLNLSRKKPCGQSEINTLKRALEVFKQQVDNVAQCHIQLAQSLREEARKMEEFREKQKLQRKKTELIMDAIHKQKSLQFKKTMDAKKNYEQKCRDKDEAEQAVSRSANLVNPKQQEKLFVKLATSKTAVEDSDKAYMLHIGTLDKVREEWQSEHIKACEAFEAQECERINFFRNALWLHVNQLSQQCVTSDEMYEQVRKSLEMCSIQRDIEYFVNQRKTGQIPPAPIMYENFYSSQKNAVPAGKATGPNLARRGPLPIPKSSPDDPNYSLVDDYSLLYQ
B9: sp¦P61019¦RAB2A_HUMAN (protein, UniProt P61019 2-212, looked up)
Ras-related protein Rab-2A: AYAYLFKYIIIGDTGVGKSCLLLQFTDKRFQPVHDLTIGVEFGARMITIDGKQIKLQIWDTAGQESFRSITRSYYRGAAGALLVYDITRRDTFNHLTTWLEDARQHSNSNMVIMLIGNKSDLESRREVKKEEGEAFAREHGLIFMETSAKTASNVEEAFINTAKEIYEKIQEGVFDINNEANGIKIGPQHAATNATHAGNQGGQQAGGGCC
B10: sp¦Q9BVC6¦TM109_HUMAN (protein, UniProt Q9BVC6 34-243, looked up)
Voltage-gated monoatomic …: QSRRDFAPPGQQKREAPVDVLTQIGRSVRGTLDAWIGPETMHLVSESSSQVLWAISSAISVAFFALSGIAAQLLNALGLAGDYLAQGLKLSPGQVQTFLLWGAGALVVYWLLSLLLGLVLALLGRILWGLKLVIFLAGFVALMRSVPDPSTRALLLLALLILYALLSRLTGSRASGAQLEAKVRGLERQVEELRWRQRRAAKGARSVEEE
B11: sp¦P21964¦COMT_HUMAN (protein, UniProt P21964 1-271, looked up)
Catechol O-methyltransferase: MPEAPPLLLAAVLLGLVLLVVLLLLLRHWGWGLCLIGWNEFILQPIHNLLMGDTKEQRILNHVLQHAEPGNAQSVLEAIDTYCEQKEWAMNVGDKKGKIVDAVIQEHQPSVLLELGAYCGYSAVRMARLLSPGARLITIEINPDCAAITQRMVDFAGVKDKVTLVVGASQDIIPQLKKKYDVDTLDMVFLDHWKDRYLPDTLLLEECGLLRKGTVLLADNVICPGAPDFLAHVRGSSCFECTHYQSFLEYREVVDGLEKAIYKGPGSEAGP

System: human HL60 cells
Experiment: SWATH-MS proteomics, differential protein representation, akirin2 KO vs WT HL60 cells
Format: cell-based
Details: sheet "Under-represented in KO"
In short: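 WT and akirin2 KO HL60 lysates (150 µg, n=3 biological replicates) were FASP trypsin-digested and desalted. A spectral library was built by IDA from 3 µg digests, then 5 µg per sample went to variable-window SWATH DIA over a 120-min 5–30% acetonitrile gradient. Identifications were accepted at 1% global FDR, with total-area-sum normalization.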

[1] = KO vs WT, akirin2 KO vs WT HL60 cells

Molecule | Fold Change [1] | Log (Fold Change) [1] | Fold Change (KO vs WT HL60 cells) | Log (Fold Change) (KO vs WT HL60 cells)
B1 | 0.5753 | -0.2401 |  | 
B2 | 0.5524 | -0.2577 |  | 
B3 |  |  | 0.5492 | -0.2603
B4 | 0.571 | -0.2434 |  | 
B5 |  |  | 0.5507 | -0.2591
B6 | 0.5707 | -0.2436 |  | 
B7 |  |  | 0.5435 | -0.2648
B8 | 0.5689 | -0.2449 |  | 
B9 | 0.5636 | -0.249 |  | 
B10 | 0.5517 | -0.2583 |  | 
B11 | 0.567 | -0.2464 |  | 
